Test results reported in publication PMC8174033, “FEZ1 Forms Complexes with CRMP1 and DCC to Regulate Axon and Dendrite Development” (eNeuro, 2021).

Target: T1, FEZ1 (amino acids 1-308), EmGFP-tagged (UniProt Q99689 1-308)
T1 construct: FEZ1, amino acids 1-308; plasmid as described in Chua et al., 2012; also called truncated FEZ1 lacking its C terminus; source: HEK293, transfected, in lysate
T1 sequence (looked up): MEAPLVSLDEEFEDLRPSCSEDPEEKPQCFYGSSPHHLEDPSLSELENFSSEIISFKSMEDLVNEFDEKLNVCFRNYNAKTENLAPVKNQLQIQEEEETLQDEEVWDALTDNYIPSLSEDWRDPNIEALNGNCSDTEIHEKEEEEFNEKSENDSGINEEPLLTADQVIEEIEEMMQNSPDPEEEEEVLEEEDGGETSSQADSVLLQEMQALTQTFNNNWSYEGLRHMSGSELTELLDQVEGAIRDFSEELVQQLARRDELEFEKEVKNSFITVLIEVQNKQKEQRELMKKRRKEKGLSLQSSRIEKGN
Assay: co-IP; HEK293 cells co-expressing the two tagged proteins, 24 h after transfection; lysis and washes in 50 mM HEPES, 150 mM NaCl, 1 mM EDTA, 1% Triton X-100, pH 7.2; GFP-Trap agarose beads 1-3 h at 4°C; immunoblot
Settings: partners not purified

fold change of co-precipitated CRMP1 against full-length FEZ1: ~3 fold
B1: collapsin response mediator protein 1 (CRMP1), full-length, FLAG-tagged (natural protein)
chain: not shown
notes: CRMP1, human cDNA, full-length, in pFLAG-CMV2; also called FLAG-CRMP1; source: HEK293, transfected, in lysate
